# Source: EP0910659B1, “ANTIBODIES AGAINST A COMPLEX OF CD4 AND A CHEMOKINE RECEPTOR DOMAIN, AND THEIR USE AGAINST HIV INFECTIONS” (United Biomedical, Inc., priority 1996, dated 1997)
# Key:
# [1] = molecular target: recombinant soluble CD4 (rsCD4) (human); assay: rsCD4 ELISA
# [2] = molecular target: CD4 on the surface of CD4-expressing cells (host cell antigen complex comprising CD4) (human); assay: cell-based or functional assay
# [3] = molecular target: recombinant soluble CD4 (rsCD4) (human); assay: ELISA, rsCD4-coated wells
# [4] = molecular target: rsCD4 preincubated with CC-CKR5 domain 3 peptide p2047a (human) (UniProt P51681); assay: ELISA, rsCD4/CC-CKR5-D3 coated wells
# Chain of rsCD4 preincubated with CC-CKR5 domain 3 peptide p2047a (human) (P51681 168-199, form in doubt): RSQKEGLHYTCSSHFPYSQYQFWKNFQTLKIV
# [5] = molecular target: CD4 on the surface of CD4-expressing cells (host cell antigen complex comprising CD4) (human); assay: indirect immunofluorescence, HPB-ALL cells
# [6] = molecular target: CD4 on the surface of CD4-expressing cells (host cell antigen complex comprising CD4) (human); assay: SUP-T cells, biotinylated B4, no competitor
# [7] = molecular target: recombinant soluble CD4 (rsCD4) (human); assay: rsCD4 ELISA, purified B4 2 µg/mL, no competitor
# [8] = molecular target: CD4 on the surface of CD4-expressing cells (host cell antigen complex comprising CD4) (human); assay: HPB-ALL cells, biotinylated B4 0.71 µg/mL, no competitor
# [9] = molecular target: CD4 on the surface of CD4-expressing cells (host cell antigen complex comprising CD4) (human); assay: HPB-ALL cells, biotinylated B4 1:1000 + FITC-avidin, no competitor
# [10] = molecular target: rsCD4 preincubated with CC-CKR5 domain 3 peptide p2047a (human) (UniProt P51681); assay: ratio of the rsCD4 IC50 values of the two ELISA inhibition assays
# [11] = molecular target: CD4 on the surface of CD4-expressing cells (host cell antigen complex comprising CD4) (human); assay: HPB-ALL cells pre-incubated with MAb 10 µg/mL; competitor biotinylated B4
# [12] = molecular target: CD4 on the surface of CD4-expressing cells (host cell antigen complex comprising CD4) (human); assay: HPB-ALL cells pre-incubated with MAb 50 µg/mL, then gp120-FITC (competitor)
# [13] = molecular target: CD4 on the surface of CD4-expressing cells (host cell antigen complex comprising CD4) (human); assay: indirect immunofluorescence, HPB-ALL cells pre-incubated with gp120 (competitor)
# [14] = molecular target: rsCD4 preincubated with CC-CKR2b domain 2 peptide p2087a (human) (UniProt P41597); assay: ELISA, rsCD4 0.25 µg/mL preincubated with peptide, B4 0.1 µg/mL; against rsCD4 alone
# [15] = molecular target: rsCD4 preincubated with CC-CKR2b domain 3 peptide p2088a (human) (UniProt P41597); assay: as above
# Chain of rsCD4 preincubated with CC-CKR2b domain 3 peptide p2088a (human) (P41597 182-207, form in doubt): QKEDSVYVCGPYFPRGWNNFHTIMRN
# [16] = molecular target: rsCD4 preincubated with CC-CKR3 domain 4 peptide p2082a (human) (UniProt P51677); assay: as above
# [17] = molecular target: rsCD4 preincubated with CC-CKR5 domain 3 peptide p2047a (human) (UniProt P51681); assay: as above
# [18] = molecular target: recombinant soluble CD4 (rsCD4) (human); assay: direct ELISA, rsCD4 wells pretreated with p1624a; B4-HRP 50 µg/mL, PBS instead of competitor
# [19] = molecular target: recombinant soluble CD4 (rsCD4) (human); assay: competition ELISA, rsCD4 wells pretreated with p1624a; MAb 50 µg/mL; competitor B4-HRP 50 µg/mL
substance,measurement,setting,value
monoclonal antibody B4,A492 nm reactivity to rsCD4,[1],1.42 A492
same,"50% Inhbt., HIV-1 primary isolate 23135, MT-2 Microplaque Neutralization Assay",[2],0.21 µg/mL
same,"50% Inhbt., HIV-1 primary isolate BR014, MT-2 Microplaque Neutralization Assay",[2],0.19 µg/mL
same,50% end point for neutralization of HIV-1 primary isolate (23135),[2],0.21 µg/mL
same,"90% Inhbt., HIV-1 primary isolate 23135, MT-2 Microplaque Neutralization Assay",[2],1.54 µg/mL
same,"90% Inhbt., HIV-1 primary isolate BR014, MT-2 Microplaque Neutralization Assay",[2],1.63 µg/mL
same,"HIV-1 DH-12 (chimp PBL-grown), PBMC Infection Reduction Assay",[2],3 logs killed
same,"HIV-1 DH-12, 50% Inhib, MT-2 Microplaque Assay",[2],0.33 µg/mL
same,"HIV-1 DH-12, 90% Inhib, MT-2 Microplaque Assay",[2],2.1 µg/mL
same,"HIV-2 287, PBMC Infectivity Reduction Assay with MAb B4 at 10 µg/mL",[2],1.5 logs killed
same,"HIV-2 ROD, 50%, MT2 Microplaque Neutralization Assay",[2],0.7 µg/mL
same,"HIV-2 ROD, 90%, MT2 Microplaque Neutralization Assay",[2],8.5 µg/mL
same,"SHIV 89.6, 50%, p27 Antigen Neutralization Assay",[2],0.088 µg/mL
same,"SHIV IIIB, 50%, p27 Antigen Neutralization Assay",[2],0.679 µg/mL
same,"SIV239, 50%, p27 Antigen Neutralization Assay",[2],1.3 µg/mL
same,"SIV251 (huPBMC), 80%, p27 Antigen Neutralization Assay",[2],1 µg/mL
same,"SIV251, 50%, p27 Antigen Neutralization Assay",[2],2 µg/mL
same,endpoint binding concentration (OD492nm reading of 1.0),[3],2 µg/mL
same,endpoint binding concentration (OD492nm reading of 1.0),[4],0.1 µg/mL
same,% of HPB-ALL cells reactive,[5],> 90%
same,positive rate,[6],95%
same,A492 nm,[7],0.679 A492
same,% Positive cells,[8],> 95%
same,% Positive cells,[9],> 95%
same,Intensity of staining,[9],2
same,fold improvement of affinity over MAb B4 for rsCD4 alone,[10],15 fold
same,% Positive cells (biotinylated B4 staining),[11],0%
same,Intensity of staining (biotinylated B4),[11],0
same,% of cells stained by gp120-FITC after prior binding with MAb,[12],0%
same,% of cells reactive after prior binding of gp120,[13],> 90%
same,degree of enhancement of MAb B4-rsCD4 binding (grade 0 to 8),[14],> 4 +
same,degree of enhancement of MAb B4-rsCD4 binding (grade 0 to 8),[15],> 4 +
same,degree of enhancement of MAb B4-rsCD4 binding (grade 0 to 8),[16],8 +
same,degree of enhancement of MAb B4-rsCD4 binding (grade 0 to 8),[17],5 +
same,A492 nm,[18],1.66 A492
same,% Inhibition,[19],80%
same,A492 nm (B4-HRP signal),[19],0.338 A492
